Results: patent US20250090688A1 (BROAD INSTITUTE, published 2025)

Tests used:
Assay in all cases: inhibition of transduction of human primary myotubes by virus pre-incubated with recombinant soluble integrin (affinity as inferred by the filing)
[1] = molecular target: T1, recombinant soluble human integrin heterodimer αVβ3 (human, UniProt P06756 31-992; P05106 27-718)
T1 construct: Bought (R&D Systems); also called αVβ3 recombinant protein; αVb3

[2] = molecular target: T2, recombinant soluble human integrin heterodimer αVβ1 (human, UniProt P06756 31-992; P05556 21-728)
T2 construct: Bought (R&D Systems); also called αVβ1 recombinant protein; αVb1

[3] = molecular target: T3, recombinant soluble human integrin heterodimer αVβ8 (human, UniProt P06756 31-992; P26012 43-684)
T3 construct: Bought (R&D Systems); also called αVβ8 recombinant protein; αVb8

[4] = molecular target: T4, recombinant soluble human integrin heterodimer αVβ6 (human, UniProt P06756 31-992; P18564 22-707)
T4 construct: Bought (R&D Systems); also called αVβ6 recombinant protein; αVb6

Measured: binding result

T3 sequence (P06756 31-992 limits assumed, chain 1 of 2): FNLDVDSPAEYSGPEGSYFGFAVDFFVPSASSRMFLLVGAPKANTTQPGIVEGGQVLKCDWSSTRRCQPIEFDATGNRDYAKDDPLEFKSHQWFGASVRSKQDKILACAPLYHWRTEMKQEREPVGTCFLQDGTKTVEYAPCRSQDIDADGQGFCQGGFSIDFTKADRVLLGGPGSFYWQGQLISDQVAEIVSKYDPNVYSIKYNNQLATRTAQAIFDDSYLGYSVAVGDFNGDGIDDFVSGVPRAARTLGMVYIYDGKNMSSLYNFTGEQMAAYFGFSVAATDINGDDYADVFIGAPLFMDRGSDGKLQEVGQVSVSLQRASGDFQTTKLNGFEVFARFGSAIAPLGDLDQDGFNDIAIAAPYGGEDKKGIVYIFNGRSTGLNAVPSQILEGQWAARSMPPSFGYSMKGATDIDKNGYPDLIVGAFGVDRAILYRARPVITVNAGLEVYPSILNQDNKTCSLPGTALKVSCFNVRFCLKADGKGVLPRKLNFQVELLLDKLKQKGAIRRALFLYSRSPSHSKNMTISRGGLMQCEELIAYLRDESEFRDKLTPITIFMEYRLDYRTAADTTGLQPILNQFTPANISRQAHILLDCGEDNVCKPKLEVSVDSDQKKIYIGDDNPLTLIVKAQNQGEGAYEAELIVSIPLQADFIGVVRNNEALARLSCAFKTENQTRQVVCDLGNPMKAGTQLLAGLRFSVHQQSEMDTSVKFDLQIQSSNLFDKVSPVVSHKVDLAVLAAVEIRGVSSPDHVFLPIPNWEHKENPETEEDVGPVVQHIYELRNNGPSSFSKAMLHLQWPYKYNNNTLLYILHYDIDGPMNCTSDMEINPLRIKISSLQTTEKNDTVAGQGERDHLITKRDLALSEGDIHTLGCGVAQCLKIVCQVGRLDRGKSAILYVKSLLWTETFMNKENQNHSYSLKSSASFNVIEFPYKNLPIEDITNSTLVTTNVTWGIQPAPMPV
T3 sequence (P26012 43-684 limits assumed, chain 2 of 2): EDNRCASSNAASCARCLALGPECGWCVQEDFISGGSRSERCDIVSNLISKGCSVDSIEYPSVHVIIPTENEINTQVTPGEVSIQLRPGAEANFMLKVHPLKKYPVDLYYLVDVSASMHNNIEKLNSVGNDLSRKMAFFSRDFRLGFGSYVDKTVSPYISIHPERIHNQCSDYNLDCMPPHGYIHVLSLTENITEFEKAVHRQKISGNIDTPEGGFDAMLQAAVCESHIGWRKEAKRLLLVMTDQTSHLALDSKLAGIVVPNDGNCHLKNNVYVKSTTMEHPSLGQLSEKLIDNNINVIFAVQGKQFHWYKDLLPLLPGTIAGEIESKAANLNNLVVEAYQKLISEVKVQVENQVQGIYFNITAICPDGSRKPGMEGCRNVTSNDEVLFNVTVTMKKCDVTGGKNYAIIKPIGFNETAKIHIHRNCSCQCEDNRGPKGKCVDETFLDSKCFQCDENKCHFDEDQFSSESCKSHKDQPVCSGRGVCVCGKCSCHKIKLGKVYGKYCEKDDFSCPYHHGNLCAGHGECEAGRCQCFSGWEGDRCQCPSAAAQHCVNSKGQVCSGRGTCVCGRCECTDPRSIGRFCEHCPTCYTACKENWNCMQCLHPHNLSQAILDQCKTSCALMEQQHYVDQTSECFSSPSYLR
T4 sequence (P06756 31-992 limits assumed, chain 1 of 2): as the sequence (P06756 31-992 limits assumed, chain 1 of 2) above
T4 sequence (P18564 22-707 limits assumed, chain 2 of 2): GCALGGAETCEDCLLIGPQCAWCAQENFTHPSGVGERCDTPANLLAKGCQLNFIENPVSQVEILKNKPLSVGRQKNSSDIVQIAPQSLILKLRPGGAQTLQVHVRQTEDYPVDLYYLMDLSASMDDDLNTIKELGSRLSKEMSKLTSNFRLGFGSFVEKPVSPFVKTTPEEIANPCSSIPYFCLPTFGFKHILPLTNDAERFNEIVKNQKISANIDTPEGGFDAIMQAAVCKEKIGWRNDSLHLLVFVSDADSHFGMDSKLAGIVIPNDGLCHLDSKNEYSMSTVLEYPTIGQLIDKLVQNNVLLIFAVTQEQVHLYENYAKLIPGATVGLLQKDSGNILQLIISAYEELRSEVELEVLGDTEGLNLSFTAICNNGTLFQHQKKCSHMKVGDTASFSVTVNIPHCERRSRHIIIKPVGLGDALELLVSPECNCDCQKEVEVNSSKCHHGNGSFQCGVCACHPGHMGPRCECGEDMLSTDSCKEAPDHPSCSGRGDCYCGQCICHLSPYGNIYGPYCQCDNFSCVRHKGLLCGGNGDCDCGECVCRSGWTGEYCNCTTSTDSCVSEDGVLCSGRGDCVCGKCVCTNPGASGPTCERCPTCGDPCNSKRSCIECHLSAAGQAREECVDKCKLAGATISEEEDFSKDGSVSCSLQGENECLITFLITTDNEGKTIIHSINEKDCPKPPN
T1 sequence (P06756 31-992 limits assumed, chain 1 of 2): as the sequence (P06756 31-992 limits assumed, chain 1 of 2) above
T1 sequence (P05106 27-718 limits assumed, chain 2 of 2): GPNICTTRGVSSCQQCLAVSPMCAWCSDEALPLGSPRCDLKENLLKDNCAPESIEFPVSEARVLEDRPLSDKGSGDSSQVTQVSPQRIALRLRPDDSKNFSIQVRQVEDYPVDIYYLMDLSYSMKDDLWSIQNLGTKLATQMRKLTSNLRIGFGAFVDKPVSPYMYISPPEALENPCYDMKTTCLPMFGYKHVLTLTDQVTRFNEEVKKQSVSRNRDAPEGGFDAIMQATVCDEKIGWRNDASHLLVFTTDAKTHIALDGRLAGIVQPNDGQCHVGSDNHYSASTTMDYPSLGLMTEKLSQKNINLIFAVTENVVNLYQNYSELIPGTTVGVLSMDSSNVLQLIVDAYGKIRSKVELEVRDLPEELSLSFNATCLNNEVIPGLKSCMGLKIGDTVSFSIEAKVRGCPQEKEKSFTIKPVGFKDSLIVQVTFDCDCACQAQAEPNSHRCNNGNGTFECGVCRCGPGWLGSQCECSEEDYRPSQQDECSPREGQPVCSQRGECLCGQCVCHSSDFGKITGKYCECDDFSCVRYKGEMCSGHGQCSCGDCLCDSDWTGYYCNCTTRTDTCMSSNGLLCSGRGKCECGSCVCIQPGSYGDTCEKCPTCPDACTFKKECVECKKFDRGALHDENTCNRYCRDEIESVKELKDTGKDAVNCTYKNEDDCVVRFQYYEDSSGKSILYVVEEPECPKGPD
T2 sequence (P06756 31-992 limits assumed, chain 1 of 2): as the sequence (P06756 31-992 limits assumed, chain 1 of 2) above
T2 sequence (P05556 21-728 limits assumed, chain 2 of 2): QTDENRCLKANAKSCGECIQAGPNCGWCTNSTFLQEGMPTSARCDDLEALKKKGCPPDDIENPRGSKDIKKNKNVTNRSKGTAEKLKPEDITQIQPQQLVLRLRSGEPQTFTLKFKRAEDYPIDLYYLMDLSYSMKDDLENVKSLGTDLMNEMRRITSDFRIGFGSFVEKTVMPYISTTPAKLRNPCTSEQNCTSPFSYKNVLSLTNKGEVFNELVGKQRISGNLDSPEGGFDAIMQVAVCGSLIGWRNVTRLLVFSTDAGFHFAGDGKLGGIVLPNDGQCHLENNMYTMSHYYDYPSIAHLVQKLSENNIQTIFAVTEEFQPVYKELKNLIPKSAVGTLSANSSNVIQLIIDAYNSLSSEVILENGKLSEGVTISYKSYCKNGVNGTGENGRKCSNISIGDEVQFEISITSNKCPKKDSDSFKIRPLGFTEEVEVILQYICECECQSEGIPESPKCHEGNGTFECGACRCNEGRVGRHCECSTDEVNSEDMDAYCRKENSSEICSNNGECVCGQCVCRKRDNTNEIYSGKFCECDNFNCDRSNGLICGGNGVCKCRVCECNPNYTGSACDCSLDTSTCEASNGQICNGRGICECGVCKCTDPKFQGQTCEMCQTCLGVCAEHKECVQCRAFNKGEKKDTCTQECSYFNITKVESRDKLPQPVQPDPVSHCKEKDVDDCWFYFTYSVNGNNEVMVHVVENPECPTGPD

B1: MyoAAV 2A (other)
chain: MAADGYLPDWLEDNLSEGIREWWALKPGAPQPKANQQHQDNARGLVLPGYKYLGPGNGLDKGEPVNAADAAALEHDKAYDQQLKAGDNPYLKYNHADAEFQERLKEDTSFGGNLGRAVFQAKKRLLEPLGLVEEAAKTAPGKKRPVEQSPQEPDSSAGIGKSGAQPAKKRLNFGQTGDTESVPDPQPIGEPPAAPSGVGSLTMASGGGAPVADNNEGADGVGSSSGNWHCDSQWLGDRVITTSTRTWALPTYNNHLYKQISNSTSGGSSNDNAYFGYSTPWGYFDFNRFHCHFSPRDWQRLINNNWGFRPKRLNFKLFNIQVKEVTDNNGVKTIANNLTSTVQVFTDSDYQLPYVLGSAHEGCLPPFPADVFMIPQYGYLTLNDGSQAVGRSSFYCLEYFPSQMLRTGNNFQFSYEFENVPFHSSYAHSQSLDRLMNPLIDQYLYYLSKTINGSGQNQQTLKFSVAGPSNMAVQGRNYIPGPSYRQQRVSTTVTQNNNSEFAWPGASSWALNGRNSLMNPGPAMASHKEGEDRFFPLSGSLIFGKQGTGRDNVDADKVMITNEEEIKTTNPVATESYGQVATNHQGPGRGDQTTLAQAQTGWVQNQGILPGMVWQDRDVYLQGPIWAKIPHTDGNFHPSPLMGGFGMKHPPPQILIKNTPVPADPPTAFNKDKLNSFITQYSTGQVSVEIEWELQKENSKRWNPEIQYTSNYYKSNNVEFAVNTEGVYSEPRPIGTRYLTRNL
notes: Recombinant AAV particle; also called EMyoAAV; enhanced MyoAAV
binds: all assays above
